Article PMC4495402 (Genes & Development, 2015)

Target: Xenopus histone H3/H4 tetramer (Xenopus, UniProt P84233 21-136; P62799 17-103)
Experiment: ITC

Binder	Kd	dH
ALRYMESSWKEQQKEEAKSLRLGMQEDLEEMRREEEEMQRRRAKKLKRR (domain or fragment) [hSpt2C (637–685) composed of only αC2]	2.3 µM	-38.9 kcal/mol
EPQEEISKHIREIFGYDRKKYKDESDYALRYMESS (domain or fragment) [hSpt2C (610–644) composed of only αC1]	55.6 µM	-9.2 kcal/mol
yeast ySpt2C(259–333) (domain or fragment) PGYDRDEIWAMFNRGKKRSEYDYDELEDDDMEANEMEILEEEEMARKMARLEDKREEAWLKKHEEEKRRRKKGIR	–	-19.2 kcal/mol
